T1: human CD58 D33A (human, UniProt P19256 29-250, D33A)
T1 sequence (looked up): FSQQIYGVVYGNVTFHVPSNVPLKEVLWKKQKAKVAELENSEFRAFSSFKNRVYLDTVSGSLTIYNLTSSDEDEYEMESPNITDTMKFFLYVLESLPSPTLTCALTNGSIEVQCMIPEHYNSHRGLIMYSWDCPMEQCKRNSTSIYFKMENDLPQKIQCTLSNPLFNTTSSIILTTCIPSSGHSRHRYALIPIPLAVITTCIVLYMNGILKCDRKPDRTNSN

T2: human CD58 K87A (human, UniProt P19256 29-250, K87A)
T2 sequence (looked up): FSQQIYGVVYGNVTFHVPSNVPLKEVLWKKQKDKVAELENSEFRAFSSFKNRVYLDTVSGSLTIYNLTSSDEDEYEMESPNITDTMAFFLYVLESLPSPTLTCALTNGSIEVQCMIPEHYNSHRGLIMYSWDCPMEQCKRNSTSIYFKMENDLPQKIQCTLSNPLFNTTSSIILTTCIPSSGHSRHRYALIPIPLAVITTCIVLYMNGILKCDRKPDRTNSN

T3: human CD58 K30A (human, UniProt P19256 29-250, K30A)
T3 sequence (looked up): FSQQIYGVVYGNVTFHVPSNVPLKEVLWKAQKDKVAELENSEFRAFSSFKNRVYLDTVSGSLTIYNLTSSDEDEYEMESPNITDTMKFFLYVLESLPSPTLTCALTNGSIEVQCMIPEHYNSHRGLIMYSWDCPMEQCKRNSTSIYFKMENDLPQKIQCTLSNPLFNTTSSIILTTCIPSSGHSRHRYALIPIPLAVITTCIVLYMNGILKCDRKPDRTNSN

T4: human CD58 E76A (human, UniProt P19256 29-250, E76A)
T4 sequence (looked up): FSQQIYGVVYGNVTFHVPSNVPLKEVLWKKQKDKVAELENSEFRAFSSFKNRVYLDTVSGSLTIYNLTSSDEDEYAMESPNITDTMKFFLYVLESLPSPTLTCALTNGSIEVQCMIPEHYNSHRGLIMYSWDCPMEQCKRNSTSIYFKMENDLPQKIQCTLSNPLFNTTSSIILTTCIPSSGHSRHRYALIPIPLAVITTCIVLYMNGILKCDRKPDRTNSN

T5: human CD58 R44A (human, UniProt P19256 29-250, R44A)
T5 sequence (looked up): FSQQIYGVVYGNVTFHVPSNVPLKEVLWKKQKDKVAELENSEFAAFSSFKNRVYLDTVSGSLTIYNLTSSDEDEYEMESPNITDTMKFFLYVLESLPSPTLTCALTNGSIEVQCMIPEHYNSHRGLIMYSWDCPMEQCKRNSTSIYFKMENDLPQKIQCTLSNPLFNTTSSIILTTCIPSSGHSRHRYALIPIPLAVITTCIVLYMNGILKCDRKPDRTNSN

T6: human CD58 E25A (human, UniProt P19256 29-250, E25A)
T6 sequence (looked up): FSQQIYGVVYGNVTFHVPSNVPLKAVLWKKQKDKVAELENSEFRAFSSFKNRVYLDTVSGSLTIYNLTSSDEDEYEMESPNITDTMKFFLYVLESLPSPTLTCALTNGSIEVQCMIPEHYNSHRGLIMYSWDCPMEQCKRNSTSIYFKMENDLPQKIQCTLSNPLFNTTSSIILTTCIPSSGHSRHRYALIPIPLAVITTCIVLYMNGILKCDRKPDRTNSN

T7: human CD58 E37A (human, UniProt P19256 29-250, E37A)
T7 sequence (looked up): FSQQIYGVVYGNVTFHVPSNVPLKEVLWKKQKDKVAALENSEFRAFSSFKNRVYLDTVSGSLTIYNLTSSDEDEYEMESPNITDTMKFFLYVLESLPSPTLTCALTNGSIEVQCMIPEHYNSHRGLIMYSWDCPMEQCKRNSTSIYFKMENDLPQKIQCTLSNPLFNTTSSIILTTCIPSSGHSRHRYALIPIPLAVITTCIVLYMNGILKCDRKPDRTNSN


Experiments:
Assay in all cases: cell-cell adhesion assay
[1] = biological target: human CD58 K34A (human) (UniProt P19256)
[2] = biological target: T1, human CD58 D33A
[3] = biological target: T2, human CD58 K87A
[4] = biological target: T3, human CD58 K30A
[5] = biological target: T4, human CD58 E76A
[6] = biological target: T5, human CD58 R44A
[7] = biological target: T6, human CD58 E25A
[8] = biological target: T7, human CD58 E37A

% binding relative to wtCD58 [1] [%] | % binding relative to wtCD58 [2] [%] | % binding relative to wtCD58 [3] [%] | % binding relative to wtCD58 [4] [%] | % binding relative to wtCD58 [5] [%] | % binding relative to wtCD58 [6] [%] | % binding relative to wtCD58 [7] [%] | % binding relative to wtCD58 [8] [%] | Molecule
1 |  |  |  |  |  |  |  | human CD2 (from UniProt P06729 25-351) (receptor)
 | 26 | < 30 | 64 | 107 | 79 | 68 | < 30 | human CD2 (receptor, human (endogenous in Jurkat), UniProt P06729 25-351, looked up) KEITNALETWGALGQDINLDIPSFQMSDDIDDIKWEKTSDKKKIAQFRKEKETFKEKDTYKLFKNGTLKIKHLKTDDQDIYKVSIYDTKGKNVLEKIFDLKIQERVSKPKISWTCINTTLTCEVMNGTDPELNLYQDGKHLKLSQRVITHKWTTSLSAKFKCTAGNKVSKESSVEPVSCPEKGLDIYLIIGICGGGSLLMVFVALLVFYITKRKKQRSRRNDEELETRAHRVATEERGRKPHQIPASTPQNPATSQHPPPPPGHRSQAPSHRPPPPGHRVQHQPQKRPPAPSGTQVHQQKGPPLPRPRVQPKPPHGAAENSLSPSSN

Reference: article PMC2191747 (The Journal of Experimental Medicine, 1994)
